Source: publication PMC2836571 (Nucleic Acids Research, 2009)

Molecular target: the molecule itself
Assay: SEC

B1: ArdB from the E. coli K12 CP4-6 prophage (yafX) (natural protein, E. coli K12/CP4-6 prophage, UniProt P75676 1-152, looked up)
chain: MTTQTQHDLAPANQPEFELTVTPVPDEQRIDFWPQYFGAIPQWLLLEPHIFAWMDRFCEGYSGGIWSFYTLSNGGAFMSPEPDNDETWRLFNCLNGNDAQMSAEAAGIAVCLIAYSHHACRTECDAMTAHYYRLREYAMQHPEAHAILRIID
stoichiometry N: 2
